# B1: Gor1p (Saccharomyces cerevisiae S288C) (protein)
# chain: MSKKPIVLKLGKDAFGDQAWGELEKIADVITIPESTTREQFLREVKDPQNKLSQVQVITRTARSVKNTGRFDEELALALPSSVVAVCHTGAGYDQIDVEPFKKRHIQVANVPDLVSNATADTHVFLLLGALRNFGIGNRRLIEGNWPEAGPACGSPFGYDPEGKTVGILGLGRIGRCILERLKPFGFENFIYHNRHQLPSEEEHGCEYVGFEEFLKRSDIVSVNVPLNHNTHHLINAETIEKMKDGVVIVNTARGAVIDEQAMTDALRSGKIRSAGLDVFEYEPKISKELLSMSQVLGLPHMGTHSVETRKKMEELVVENAKNVILTGKVLTIVPELQNEDWPNESKPLV
# notes: C-terminal 6xHis tag, tag cut not mentioned, expressed in E. coli BL21(DE3), Ni-NTA purified
# Columns and labels:
# purified protein [1] = substrate: O=CC(=O)O; assay: purified protein; type: biochemical, Saccharomyces cerevisiae; settings: 0.25 mM NADPH, 50 mM potassium phosphate pH 7.4, 30 C, substrate 0-40 mM
# purified protein [2] = substrate: O=C(O)C(=O)CO; assay: purified protein; type: biochemical, Saccharomyces cerevisiae; settings: 0.25 mM NADPH, 50 mM potassium phosphate pH 7.4, 30 C, substrate 0-40 mM
protein,measurement,setting,value
B1,Km,purified protein [1],8.4 mM
same,Km,purified protein [2],22.7 mM
